According to publication doi:10.1101/2025.01.30.635686 (bioRxiv, 2025):
Like-named read-outs stand apart in the source and are kept apart here.

Columns and labels:
SEC = target: the molecule itself; assay: SEC
[1] = target: the molecule itself

Row | Protein | stoichiometry N (SEC) | stoichiometry N [1]
1 | ^hexYME1L (hex-tag, 10-residue linker and the catalytic domain of human YME1L, residues 317-773) (other, homo sapiens) GELKAIAQELKAIAKELKAIAWELKAIAQGAGGSGSYFQSNARFRTTTGLDSAVDPVQMKNVTFEHVKGVEEAKQELQEVVEFLKNPQKFTILGGKLPKGILLVGPPGTGKTLLARAVAGEADVPFYYASGSEFDEMFVGVGASRIRNLFREAKANAPCVIFIDELDSVGGKRIESPMHPYSRQTINQLLAEMDGFKPNEGVIIIGATNFPEALDNALIRPGRFDMQVTVPRPDVKGRTEILKWYLNKIKFDQSVDPEIIARGTVGFSGAELENLVNQAALKAAVDGKEMVTMKELEFSKDKILMGPERRSVEIDNKNKTITAYHESGHAIIAYYTKDAMPINKATIMPRGPTLGHVSLLPENDRWNETRAQLLAQMDVSMGGRVAEELIFGTDHITTGASSDFDNATKIAKRMVTKFGMSEKLGVMTYSDTGKLSPETQSAIEQEIRILLRDSYERAKHILKTHAKEHKNLAEALLTYETLDAKEIQIVLEGKKLEVR | 6 | 
2 | ^hexYME1L_(E439A) M500C (other, homo sapiens) GELKAIAQELKAIAKELKAIAWELKAIAQGAGGSGSYFQSNARFRTTTGLDSAVDPVQMKNVTFEHVKGVEEAKQELQEVVEFLKNPQKFTILGGKLPKGILLVGPPGTGKTLLARAVAGEADVPFYYASGSEFDEMFVGVGASRIRNLFREAKANAPCVIFIDALDSVGGKRIESPMHPYSRQTINQLLAEMDGFKPNEGVIIIGATNFPEALDNALIRPGRFDCQVTVPRPDVKGRTEILKWYLNKIKFDQSVDPEIIARGTVGFSGAELENLVNQAALKAAVDGKEMVTMKELEFSKDKILMGPERRSVEIDNKNKTITAYHESGHAIIAYYTKDAMPINKATIMPRGPTLGHVSLLPENDRWNETRAQLLAQMDVSMGGRVAEELIFGTDHITTGASSDFDNATKIAKRMVTKFGMSEKLGVMTYSDTGKLSPETQSAIEQEIRILLRDSYERAKHILKTHAKEHKNLAEALLTYETLDAKEIQIVLEGKKLEVR |  | 6
3 | ^hexYME1L_(E439A) M452C (other, homo sapiens) GELKAIAQELKAIAKELKAIAWELKAIAQGAGGSGSYFQSNARFRTTTGLDSAVDPVQMKNVTFEHVKGVEEAKQELQEVVEFLKNPQKFTILGGKLPKGILLVGPPGTGKTLLARAVAGEADVPFYYASGSEFDEMFVGVGASRIRNLFREAKANAPCVIFIDALDSVGGKRIESPCHPYSRQTINQLLAEMDGFKPNEGVIIIGATNFPEALDNALIRPGRFDMQVTVPRPDVKGRTEILKWYLNKIKFDQSVDPEIIARGTVGFSGAELENLVNQAALKAAVDGKEMVTMKELEFSKDKILMGPERRSVEIDNKNKTITAYHESGHAIIAYYTKDAMPINKATIMPRGPTLGHVSLLPENDRWNETRAQLLAQMDVSMGGRVAEELIFGTDHITTGASSDFDNATKIAKRMVTKFGMSEKLGVMTYSDTGKLSPETQSAIEQEIRILLRDSYERAKHILKTHAKEHKNLAEALLTYETLDAKEIQIVLEGKKLEVR |  | 6
4 | ^hexYME1L_(E439A) M701C (other, homo sapiens) GELKAIAQELKAIAKELKAIAWELKAIAQGAGGSGSYFQSNARFRTTTGLDSAVDPVQMKNVTFEHVKGVEEAKQELQEVVEFLKNPQKFTILGGKLPKGILLVGPPGTGKTLLARAVAGEADVPFYYASGSEFDEMFVGVGASRIRNLFREAKANAPCVIFIDALDSVGGKRIESPMHPYSRQTINQLLAEMDGFKPNEGVIIIGATNFPEALDNALIRPGRFDMQVTVPRPDVKGRTEILKWYLNKIKFDQSVDPEIIARGTVGFSGAELENLVNQAALKAAVDGKEMVTMKELEFSKDKILMGPERRSVEIDNKNKTITAYHESGHAIIAYYTKDAMPINKATIMPRGPTLGHVSLLPENDRWNETRAQLLAQMDVSMGGRVAEELIFGTDHITTGASSDFDNATKIAKRMVTKFGMSEKLGVCTYSDTGKLSPETQSAIEQEIRILLRDSYERAKHILKTHAKEHKNLAEALLTYETLDAKEIQIVLEGKKLEVR |  | 6
